In publication PMC10881151 (Molecular Biology of the Cell, 2024):
Where two headings read alike, the source gives them in different places.

Experiments:
[1] = biological target: T1, actin filaments (rabbit skeletal muscle actin) (rabbit, UniProt P68135 1-377); experiment: co-sedimentation
AUC = biological target: the molecule itself; experiment: AUC
[2] = biological target: T1, actin filaments (rabbit skeletal muscle …); experiment: co-sedimentation; remark: listed apart in the source

- Kd [1]: 1700 nM
- Kd [2]: 1200 nM
B1: Drp1-WT (full-length human DRP1 isoform 3) (enzyme, UniProt O00429-4 1-699, looked up)
chain: MEALIPVINKLQDVFNTVGADIIQLPQIVVVGTQSSGKSSVLESLVGRDLLPRGTGIVTRRPLILQLVHVSQEDKRKTTGEENGVEAEEWGKFLHTKNKLYTDFDEIRQEIENETERISGNNKGVSPEPIHLKIFSPNVVNLTLVDLPGMTKVPVGDQPKDIELQIRELILRFISNPNSIILAVTAANTDMATSEALKISREVDPDGRRTLAVITKLDLMDAGTDAMDVLMGRVIPVKLGIIGVVNRSQLDINNKKSVTDSIRDEYAFLQKKYPSLANRNGTKYLARTLNRLLMHHIRDCLPELKTRINVLAAQYQSLLNSYGEPVDDKSATLLQLITKFATEYCNTIEGTAKYIETSELCGGARICYIFHETFGRTLESVDPLGGLNTIDILTAIRNATGPRPALFVPEVSFELLVKRQIKRLEEPSLRCVELVHEEMQRIIQHCSNYSTQELLRFPKLHDAIVEVVTCLLRKRLPVTNEMVHNLVAIELAYINTKHPDFADACGLMNNNIEEQRRNRLARELPSAVSRDKVASGGGGVGDGVQEPTTGNWRGMLKTSKAEELLAEEKSKPIPIMPASPQKGHAVNLLDVPVPVARKLSAREQRDCEVIERLIKSYFLIVRKNIQDSVPKAVMHFLVNHVKDTLQSELVGQLYKSSLLDDLLTESEDMAQRRKEAADMLKALQGASQIIAEIRETHLW
- stoichiometry N (AUC): 2
